# Source: paper doi:10.1101/2025.06.27.661946 (bioRxiv, 2025)
# T1: ^MBPATG13 full-length (UniProt O75143 1-517)
# T1 sequence: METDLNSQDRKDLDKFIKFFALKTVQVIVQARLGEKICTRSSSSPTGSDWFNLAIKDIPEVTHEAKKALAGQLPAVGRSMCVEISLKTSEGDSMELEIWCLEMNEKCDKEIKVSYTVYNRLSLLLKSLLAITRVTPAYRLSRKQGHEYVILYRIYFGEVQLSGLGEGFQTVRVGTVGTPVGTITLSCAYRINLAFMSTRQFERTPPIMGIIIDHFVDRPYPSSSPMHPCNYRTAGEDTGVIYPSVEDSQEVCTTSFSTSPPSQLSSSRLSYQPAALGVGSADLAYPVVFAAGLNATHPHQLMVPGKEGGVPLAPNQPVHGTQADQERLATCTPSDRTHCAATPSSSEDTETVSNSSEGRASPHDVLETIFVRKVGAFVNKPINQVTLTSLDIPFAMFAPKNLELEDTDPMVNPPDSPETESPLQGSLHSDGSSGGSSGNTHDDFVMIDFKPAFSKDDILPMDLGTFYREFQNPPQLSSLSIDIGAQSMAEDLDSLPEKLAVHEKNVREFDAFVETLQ
# B1: phosphorylated ATG101^Alexa488 (natural protein)
# chain: MNCRSEVLEVSVEGRQVEEAMLAVLHTVLLHRSTGKFHYKKEGTYSIGTVGTQDVDCDFIDFTYVRVSSEELDRALRKVVGEFKDALRNSGGDGLGQMSLEFYQKKKSRWPFSDECIPWEVWTVKVHVVALATEQERQICREKVGEKLCEKIINIVEVMNRHEYLPKMPTQSEVDNVFDTGLRDVQPYLYKISFQITDALGTSVTTTMRRLIKDTLAL
# B2: ATG101^Alexa488 (natural protein)
# chain: B1 chain
# B3: ^MBPATG9A (natural protein)
# chain: MAQFDTEYQRLEASYSDSPPGEEDLLVHVAEGSKSPWHHIENLDLFFSRVYNLHQKNGFTCMLIGEIFELMQFLFVVAFTTFLVSCVDYDILFANKMVNHSLHPTEPVKVTLPDAFLPAQVCSARIQENGSLITILVIAGVFWIHRLIKFIYNICCYWEIHSFYLHALRIPMSALPYCTWQEVQARIVQTQKEHQICIHKRELTELDIYHRILRFQNYMVALVNKSLLPLRFRLPGLGEAVFFTRGLKYNFELILFWGPGSLFLNEWSLKAEYKRGGQRLELAQRLSNRILWIGIANFLLCPLILIWQILYAFFSYAEVLKREPGALGARCWSLYGRCYLRHFNELEHELQSRLNRGYKPASKYMNCFLSPLLTLLAKNGAFFAGSILAVLIALTIYDEDVLAVEHVLTTVTLLGVTVTVCRSFIPDQHMVFCPEQLLRVILAHIHYMPDHWQGNAHRSQTRDEFAQLFQYKAVFILEELLSPIVTPLILIFCLRPRALEIIDFFRNFTVEVVGVGDTCSFAQMDVRQHGHPQWLSAGQTEASVYQQAEDGKTELSLMHFAITNPGWQPPRESTAFLGFLKEQVQRDGAAASLAQGGLLPENALFTSIQSLQSESEPLSLIANVVAGSSCRGPPLPRDLQGSRHRAEVASALRSFSPLQPGQAPTGRAHSTMTGSGVDARTASSGSSVWEGQLQSLVLSEYASTEMSLHALYMHQLHKQQAQAEPERHVWHRRESDESGESAPDEGGEGARAPQSIPRSASYPCAAPRPGAPETTALHGGFQRRYGGITDPGTVPRVPSHFSRLPLGGWAEDGQSASRHPEPVPEEGSEDELPPQVHKV
# Key:
# ATG101 (human) [1] = molecular target: ATG101 (human) (UniProt Q9BSB4); assay: cross-linking
# ATG101 (human) [2] = molecular target: ATG101 (human) (UniProt Q9BSB4); assay: mass photometry
# [3] = molecular target: ATG101 co-expressed with ULK1 (human) (UniProt Q9BSB4); assay: mass photometry
# His-ATG101 (human) = His-ATG101 (human) (UniProt Q9BSB4); assay: mass photometry
# [4] = molecular target: phospho-mimetic ATG101 mutants S11D and S203D (human) (UniProt Q9BSB4); assay: mass photometry
# [5] = molecular target: phosphorylated ATG101 (His-ATG101 phosphorylated in vitro by ULK1) (human) (UniProt Q9BSB4); assay: mass photometry
# [6] = molecular target: phosphorylated ATG101 purified from insect cells treated with Okadaic Acid (human) (UniProt Q9BSB4); assay: mass photometry
# ^MBPATG13 full-length = molecular target: T1, ^MBPATG13 full-length; assay: fluorescence polarisation
# [7] = molecular target: ATG13-ATG101^Alexa488 (pre-formed complex) (UniProt Q9BSB4); assay: fluorescence polarisation
molecule,measurement,setting,value
ATG101 (from UniProt Q9BSB4 1-218) (natural protein),stoichiometry N,ATG101 (human) [1],2
same,stoichiometry N,ATG101 (human) [2],2
ATG101 co-expressed with ULK1 (from UniProt Q9BSB4 1-218) (natural protein),stoichiometry N,[3],2
His-ATG101 (from UniProt Q9BSB4 1-218) (natural protein),stoichiometry N,His-ATG101 (human),2
phospho-mimetic ATG101 mutants S11D and S203D (from UniProt Q9BSB4 1-218) (natural protein),stoichiometry N,[4],2
phosphorylated ATG101 (His-ATG101 phosphorylated in vitro by ULK1) (from UniProt Q9BSB4 1-218) (natural protein),Kd,[5],100 to 250 nM
same,stoichiometry N,[5],2
phosphorylated ATG101 purified from insect cells treated with Okadaic Acid (from UniProt Q9BSB4 1-218) (natural protein),stoichiometry N,[6],2
B1,kon,^MBPATG13 full-length,14.7 M⁻¹ s⁻¹
B2,kon,^MBPATG13 full-length,14.7 M⁻¹ s⁻¹
B3,kon,[7],15000 M⁻¹ s⁻¹
